From the Human Domainome abundance scans (Beltran et al. 2025) come the findings set out here.

± gives the uncertainty stated by the source.

Sequences and labels used below:
B1: Dystrobrevin alpha, residues 235 to 294; numbered along this chain, Q9Y4J8 (parent)
chain: ENVFHPVECSYCHSESMMGFRYRCQQCHNYQLCQDCFWRGHAGGSHSNQHQMKEYTSWKS

This data set covers variants of B1. The data set is described as follows: abundance fitness (aPCA) (normalised: wild type 0, dead -1); higher = more abundant; growth selection in yeast, the domain comes from the species named. To be noted: Homo sapiens.
Take ENVFHPVECSYCHSESMMGFRYRCQQCHNYQECQDCFWRGHAGGSHSNQHQMKEYTSWKS [L32E]: the abundance fitness was -0.395 ± 0.33.
Regarding ENVFHPVECSYCHSESMMGFRYRCQQCHNYQWCQDCFWRGHAGGSHSNQHQMKEYTSWKS [L32W], the abundance fitness is -0.751 ± 0.26.
In the case of ENVFCPVECSYCHSESMMGFRYRCQQCHNYQLCQDCFWRGHAGGSHSNQHQMKEYTSWKS [H5C], the abundance fitness is -0.024 ± 0.061.
The figure for ENVFWPVECSYCHSESMMGFRYRCQQCHNYQLCQDCFWRGHAGGSHSNQHQMKEYTSWKS [H5W] is -0.143 ± 0.062; for ENVFPPVECSYCHSESMMGFRYRCQQCHNYQLCQDCFWRGHAGGSHSNQHQMKEYTSWKS [H5P] it is -0.102 ± 0.074; for ENMFHPVECSYCHSESMMGFRYRCQQCHNYQLCQDCFWRGHAGGSHSNQHQMKEYTSWKS [V3M] it is 0.067 ± 0.057.
Take ENVFHPVECSYCHSESMMGFRYRCQQCHNHQLCQDCFWRGHAGGSHSNQHQMKEYTSWKS [Y30H]: the abundance fitness is -0.53 ± 0.11.
Take ENVFHPVECSYCHSESMMGFRYRCQQCHNYQLCQDCAWRGHAGGSHSNQHQMKEYTSWKS [F37A]: the abundance fitness was -0.043 ± 0.082.
The result for ENVFHPVECSYCHSESMMGFRYRCQQCHNYQLCQDCGWRGHAGGSHSNQHQMKEYTSWKS [F37G] reads -0.348 ± 0.063; that for ENVFHPVECSYCHSESMMGFRYWCQQCHNYQLCQDCFWRGHAGGSHSNQHQMKEYTSWKS [R23W], -0.276 ± 0.078.
ENVFHPVECSYCHSESMMGFRYFCQQCHNYQLCQDCFWRGHAGGSHSNQHQMKEYTSWKS [R23F]: the abundance fitness was -0.034 ± 0.087.
The result for ENVFHPVECSYCHSESMMGFRYRCQQCHNYQLCQDCFWRGHAGGSHSNQHVMKEYTSWKS [Q51V] reads -0.117 ± 0.062; that for ENVFHPVECSYCHSESMMGFRYRCQQCHNYQLCQDCFWRGHAGGSHSNQHHMKEYTSWKS [Q51H], -0.319 ± 0.13; that for ENVFHPVECSYCHSESMMGFRYRCQQCHNYQLCQDCFWRGHAGGSHSNQHKMKEYTSWKS [Q51K], 0.046 ± 0.068.
The result for ENVFHPVECSYCHSESMMGFRYRCQQCHNYQLCQDCFWRGHAGGSHSNQHAMKEYTSWKS [Q51A] reads -0.066 ± 0.098; that for ENVFHPLECSYCHSESMMGFRYRCQQCHNYQLCQDCFWRGHAGGSHSNQHQMKEYTSWKS [V7L], -0.045 ± 0.054; that for ENVFHPFECSYCHSESMMGFRYRCQQCHNYQLCQDCFWRGHAGGSHSNQHQMKEYTSWKS [V7F], -0.428 ± 0.11.
The figure for ENVFHPDECSYCHSESMMGFRYRCQQCHNYQLCQDCFWRGHAGGSHSNQHQMKEYTSWKS [V7D] is -0.012 ± 0.11; for ENVFHPTECSYCHSESMMGFRYRCQQCHNYQLCQDCFWRGHAGGSHSNQHQMKEYTSWKS [V7T] it is -0.048 ± 0.077.
Consider ENVFHPVECSYCHSESMMGFRYRCQQCHNYQLCQDCFWRGHAGGSHSNQHQMKEYTSWKD [S60D], for which the abundance fitness was 0.335 ± 0.37.
With ENVFHPVECSYCHSESMMGFRYRCQQCHNYQLCQDCFWRGHAGGSHSNQHQMKEYTSWKR [S60R], the abundance fitness was found to be 0.134 ± 0.15.
The result for ENVFHPVECSYCHSESMMGFRYRCQQCHNYQLCQDCFWRGHAGGSHSNQVQMKEYTSWKS [H50V] reads -0.686 ± 0.049; that for ENVFHPVECSYCHSESMMGFRYRCQQCHNYQLCQDCFWRGHAGGSHSNQNQMKEYTSWKS [H50N], -0.493 ± 0.062.
Take ENVFHPVECSYCHSESMMGFRYRCQQCHNYQLCQDCFWRGHAGGSHSNQHQMKEVTSWKS [Y55V]: the abundance fitness stood at 0.238 ± 0.068.
The result for ENVFHPVECSYCHSESMMGFRYRCQQCHNYQLCQDCFWRGHAGGSHSNQHQMKEKTSWKS [Y55K] reads -0.609 ± 0.23.
The figure for ENVFHPVECSYCVSESMMGFRYRCQQCHNYQLCQDCFWRGHAGGSHSNQHQMKEYTSWKS [H13V] is -0.457 ± 0.063; for ENVFHPVECSYCPSESMMGFRYRCQQCHNYQLCQDCFWRGHAGGSHSNQHQMKEYTSWKS [H13P] it is -0.677 ± 0.081.
The figure for ENVFHPVECSYCHSESMRGFRYRCQQCHNYQLCQDCFWRGHAGGSHSNQHQMKEYTSWKS [M18R] is 0.111 ± 0.048.
On to ENVFHPVECSYCHSESMMGFRYRCQQCHNYQLCQNCFWRGHAGGSHSNQHQMKEYTSWKS [D35N], for which the abundance fitness came out at 0.069 ± 0.14.
The figure for ENVFHPVECSYCHDESMMGFRYRCQQCHNYQLCQDCFWRGHAGGSHSNQHQMKEYTSWKS [S14D] is -0.13 ± 0.072.
On to ENVFHPVECSYCHHESMMGFRYRCQQCHNYQLCQDCFWRGHAGGSHSNQHQMKEYTSWKS [S14H], for which the abundance fitness was -0.081 ± 0.13.
The figure for ENVFHPVECSYCHSESMMIFRYRCQQCHNYQLCQDCFWRGHAGGSHSNQHQMKEYTSWKS [G19I] is -0.256 ± 0.11; for ENVFHPVECSYCHSESMMGFRYRCQQCHNYQLCQDCFWRGHAGVSHSNQHQMKEYTSWKS [G44V] it is -0.234 ± 0.097.
The figure for ENVFHPVECSYCHSESMMGFRYRCQQCHNYQLCQDCFWRGHAGQSHSNQHQMKEYTSWKS [G44Q] is -0.841 ± 0.26; for ENVFHPVECSYCHSESMMGFRYRCQQCHNYQLCQDCFWRGHAGGDHSNQHQMKEYTSWKS [S45D] it is 0.163 ± 0.07; for ENVFHPVECSYCHSESMMGFRYRCQQCHNYWLCQDCFWRGHAGGSHSNQHQMKEYTSWKS [Q31W] it is 0.11 ± 0.12.
The result for ENVFHMVECSYCHSESMMGFRYRCQQCHNYQLCQDCFWRGHAGGSHSNQHQMKEYTSWKS [P6M] reads -0.071 ± 0.056.
In the case of ENVFHPVECSYCHSESMMGFRYREQQCHNYQLCQDCFWRGHAGGSHSNQHQMKEYTSWKS [C24E], the abundance fitness is -0.615 ± 0.046.
The figure for ENVFHPVECSYCHSESMMGFRYRCQCCHNYQLCQDCFWRGHAGGSHSNQHQMKEYTSWKS [Q26C] is -0.301 ± 0.11.
As to ENVFHPVECSYCHSESMMGFRYRCQICHNYQLCQDCFWRGHAGGSHSNQHQMKEYTSWKS [Q26I], the abundance fitness was found to be 0.011 ± 0.091.
In the case of ENVFHPVECSYCHSESMMGPRYRCQQCHNYQLCQDCFWRGHAGGSHSNQHQMKEYTSWKS [F20P], the abundance fitness worked out at 0.307 ± 0.057.
The result for ENVFHPVECSYPHSESMMGFRYRCQQCHNYQLCQDCFWRGHAGGSHSNQHQMKEYTSWKS [C12P] reads -1.29 ± 0.2.
The result for ENVFHPVECSYAHSESMMGFRYRCQQCHNYQLCQDCFWRGHAGGSHSNQHQMKEYTSWKS [C12A] reads -0.883 ± 0.11.
The figure for ENVFHPVECSYQHSESMMGFRYRCQQCHNYQLCQDCFWRGHAGGSHSNQHQMKEYTSWKS [C12Q] is -1 ± 0.18; for ENVFHPVECSYMHSESMMGFRYRCQQCHNYQLCQDCFWRGHAGGSHSNQHQMKEYTSWKS [C12M] it is -1.11 ± 0.14.
